Results as given in the supplement of paper PMC9428881.
± gives the standard error.

Experiment: background-corrected fluorescence of 3'-dye-labeled ssDNA relative to brightest sequence (3'-GCGCG) (fraction); higher = brighter dye fluorescence (less quenching)
Settings: dye: Cy3 (3' terminal)
In short: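 Arrays of single-stranded DNA, with a 3' Cy3 or Cy5 dye beside each of 1024 permuted pentamers, were built on glass slides through light-directed phosphoramidite synthesis. They were washed for 2 h at r.t. in acetonitrile and scanned at 532 or 635 nm, once before and once after overnight ethylenediamine/ethanol deprotection. Fluorescence is reported after subtracting unlabeled-oligo background and normalizing to the brightest sequence. Averages cover 10 features per array and at least 3 syntheses.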
With “TTTTTTGCTCAGCATCATCATTTTTTTTTTTTTTTAGTGG [GGTGA]” the background-corrected fluorescence was 0.625 ± 0.034. “TTTTTTGCTCAGCATCATGATTTTTTTTTTTTTTTAGTGC [CGTGA]” gave a background-corrected fluorescence of 0.518 ± 0.047. For “TTTTTTGCTCAGCATCATGCTTTTTTTTTTTTTTTAGTGA”, the background-corrected fluorescence was 0.645 ± 0.022. Work on “TTTTTTGCTCAGCATGAGCATTTTTTTTTTTTTTTAGTCT [TCTGA]” yielded a background-corrected fluorescence of 0.472 ± 0.018. Work on “TTTTTTGCTCAGCATGATCATTTTTTTTTTTTTTTAGTCG [GCTGA]” yielded a background-corrected fluorescence of 0.579 ± 0.024. For “TTTTTTGCTCAGCATGATGATTTTTTTTTTTTTTTAGTCC [CCTGA]”, the background-corrected fluorescence was 0.41 ± 0.024. For “TTTTTTGCTCAGCATGATGCTTTTTTTTTTTTTTTAGTCA [ACTGA]”, the background-corrected fluorescence was 0.529 ± 0.013. For “TTTTTTGCTCAGCATGCGCATTTTTTTTTTTTTTTAGTAT [TATGA]”, the background-corrected fluorescence was 0.554 ± 0.031. For “TTTTTTGCTCAGCATGCTCATTTTTTTTTTTTTTTAGTAG [GATGA]”, the background-corrected fluorescence was 0.605 ± 0.054. For “TTTTTTGCTCAGCATGCTGATTTTTTTTTTTTTTTAGTAC [CATGA]”, the background-corrected fluorescence was 0.485 ± 0.006. For “TTTTTTGCTCAGCATGCTGCTTTTTTTTTTTTTTTAGTAA [AATGA]”, the background-corrected fluorescence was 0.563 ± 0.016. Work on “TTTTTTGCTCATCAGCAGCATTTTTTTTTTTTTTTAGGTT [TTGGA]” yielded a background-corrected fluorescence of 0.584 ± 0.022. In the case of “TTTTTTGCTCATCAGCATCATTTTTTTTTTTTTTTAGGTG [GTGGA]”, the background-corrected fluorescence is reported as 0.585 ± 0.025. For “TTTTTTGCTCATCAGCATGATTTTTTTTTTTTTTTAGGTC [CTGGA]”, the background-corrected fluorescence was 0.459 ± 0.014. With “TTTTTTGCTCATCAGCATGCTTTTTTTTTTTTTTTAGGTA [ATGGA]” the background-corrected fluorescence was 0.564 ± 0.027. Work on “TTTTTTGCTCATCATCAGCATTTTTTTTTTTTTTTAGGGT [TGGGA]” yielded a background-corrected fluorescence of 0.7155 ± 0.0051. In the case of “TTTTTTGCTCATCATCATCATTTTTTTTTTTTTTTAGGGG [GGGGA]”, the background-corrected fluorescence is reported as 0.69 ± 0.019. For “TTTTTTGCTCATCATCATGATTTTTTTTTTTTTTTAGGGC [CGGGA]”, the background-corrected fluorescence was 0.598 ± 0.023. With “TTTTTTGCTCATCATCATGCTTTTTTTTTTTTTTTAGGGA” the background-corrected fluorescence was 0.707 ± 0.036. In the case of “TTTTTTGCTCATCATGAGCATTTTTTTTTTTTTTTAGGCT [TCGGA]”, the background-corrected fluorescence is reported as 0.596 ± 0.014. With “TTTTTTGCTCATCATGATCATTTTTTTTTTTTTTTAGGCG [GCGGA]” the background-corrected fluorescence was 0.633 ± 0.026. “TTTTTTGCTCATCATGATGATTTTTTTTTTTTTTTAGGCC [CCGGA]” showed a background-corrected fluorescence of 0.479 ± 0.037. “TTTTTTGCTCATCATGATGCTTTTTTTTTTTTTTTAGGCA [ACGGA]” showed a background-corrected fluorescence of 0.584 ± 0.0074. Work on “TTTTTTGCTCATCATGCGCATTTTTTTTTTTTTTTAGGAT” yielded a background-corrected fluorescence of 0.637 ± 0.019. Work on “TTTTTTGCTCATCATGCTCATTTTTTTTTTTTTTTAGGAG [GAGGA]” yielded a background-corrected fluorescence of 0.597 ± 0.023. For “TTTTTTGCTCATCATGCTGATTTTTTTTTTTTTTTAGGAC [CAGGA]”, the background-corrected fluorescence was 0.479 ± 0.014. With “TTTTTTGCTCATCATGCTGCTTTTTTTTTTTTTTTAGGAA [AAGGA]” the background-corrected fluorescence was 0.648 ± 0.0081. “TTTTTTGCTCATGAGCAGCATTTTTTTTTTTTTTTAGCTT [TTCGA]” showed a background-corrected fluorescence of 0.551 ± 0.021. In the case of “TTTTTTGCTCATGAGCATCATTTTTTTTTTTTTTTAGCTG [GTCGA]”, the background-corrected fluorescence is reported as 0.524 ± 0.005. “TTTTTTGCTCATGAGCATGATTTTTTTTTTTTTTTAGCTC [CTCGA]” gave a background-corrected fluorescence of 0.408 ± 0.042. “TTTTTTGCTCATGAGCATGCTTTTTTTTTTTTTTTAGCTA [ATCGA]” showed a background-corrected fluorescence of 0.512 ± 0.0099. Sequence “TTTTTTGCTCATGATCAGCATTTTTTTTTTTTTTTAGCGT [TGCGA]” has a background-corrected fluorescence of 0.679 ± 0.022. With “TTTTTTGCTCATGATCATCATTTTTTTTTTTTTTTAGCGG [GGCGA]” the background-corrected fluorescence was 0.716 ± 0.013. “TTTTTTGCTCATGATCATGATTTTTTTTTTTTTTTAGCGC [CGCGA]” showed a background-corrected fluorescence of 0.65 ± 0.023.
